{"source": "paper PMC5983740", "about": "“Tryptophan-Containing Dual Neuroprotective Peptides: Prolyl Endopeptidase Inhibition and Caenorhabditis elegans Protection from β-Amyloid Peptide Toxicity” (International Journal of Molecular Sciences, 2018)", "target": "T1, prolyl endopeptidase (PEP) (Elizabethkingia meningoseptica, UniProt P27028)", "T1 construct": "purchased Seikagaku Corporation (Tokyo, Japan)", "T1 sequence (P27028 21-705)": "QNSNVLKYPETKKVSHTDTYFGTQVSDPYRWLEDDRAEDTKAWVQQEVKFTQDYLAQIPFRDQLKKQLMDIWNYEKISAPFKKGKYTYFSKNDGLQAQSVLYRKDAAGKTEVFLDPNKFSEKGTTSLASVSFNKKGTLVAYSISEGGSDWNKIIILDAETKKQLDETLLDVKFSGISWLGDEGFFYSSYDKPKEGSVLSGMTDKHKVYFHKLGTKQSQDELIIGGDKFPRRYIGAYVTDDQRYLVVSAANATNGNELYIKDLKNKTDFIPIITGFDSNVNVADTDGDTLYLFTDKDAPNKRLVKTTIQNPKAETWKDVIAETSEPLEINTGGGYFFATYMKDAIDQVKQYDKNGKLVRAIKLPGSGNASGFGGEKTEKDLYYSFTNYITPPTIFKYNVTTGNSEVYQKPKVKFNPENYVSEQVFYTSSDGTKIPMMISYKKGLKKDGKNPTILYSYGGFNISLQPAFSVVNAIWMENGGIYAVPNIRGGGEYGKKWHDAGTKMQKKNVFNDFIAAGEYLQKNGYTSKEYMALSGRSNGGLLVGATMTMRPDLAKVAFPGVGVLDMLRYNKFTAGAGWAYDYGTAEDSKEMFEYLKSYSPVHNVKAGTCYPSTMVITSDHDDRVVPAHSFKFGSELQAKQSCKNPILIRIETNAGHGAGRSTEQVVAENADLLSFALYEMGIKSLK", "experiment": "biochemical", "format": "biochemical", "conditions": "0.7 and 1.4 mg/mL", "description": "The PEP activity was determined as previously described with minor modifications. Enzyme assays were performed in 96-well microplates using Z-Gly-Pro-p-nitroanilide as a substrate and measuring the increase in absorbance at 410 nm due to the release of p-nitroaniline. Ten µL of tenfold peptide or hydrolysate solution in 100 mM sodium phosphate buffer, pH 7 ([…] for LFHs), 30 µL of a 0.1 U/mL PEP solution in 100 mM sodium phosphate buffer (pH 7) and 35 µL of the same sodium phosphate buffer were pre-incubated at 30 °C for 5 min, and the mixture incubated with 25 µL of 2 mM Z-Gly-Pro-p-nitroanilide in 40% 1,4-dioxane for 30 min at the same temperature. The reaction was finished by the addition of 100 µL 10% Triton X-100 in 1 M sodium acetate buffer (pH 4), and the absorbance measured at 410 nm in a microplate reader. Data are expressed as the percentage of PEP residual activity with respect to a control without peptide (100%).\nThe IC50 value of a peptide was defined as the concentration required to inhibit 50% of the PEP activity and the value for each experiment was estimated by non-linear regression of the experimental data to a four-parameter logistic curve using the software package SigmaPlot v 13.0 (SPSS Inc., Chicago, IL, USA)."}
{"molecule": "Non-hydrolysed LF: bovine lactoferrin, multifunctional iron glycoprotein of milk whey, not hydrolysed (protein, UniProt P24627 20-708, looked up) Lactotransferrin: APRKNVRWCTISQPEWFKCRRWQWRMKKLGAPSITCVRRAFALECIRAIAEKKADAVTLDGGMVFEAGRDPYKLRPVAAEIYGTKESPQTHYYAVAVVKKGSNFQLDQLQGRKSCHTGLGRSAGWIIPMGILRPYLSWTESLEPLQGAVAKFFSASCVPCIDRQAYPNLCQLCKGEGENQCACSSREPYFGYSGAFKCLQDGAGDVAFVKETTVFENLPEKADRDQYELLCLNNSRAPVDAFKECHLAQVPSHAVVARSVDGKEDLIWKLLSKAQEKFGKNKSRSFQLFGSPPGQRDLLFKDSALGFLRIPSKVDSALYLGSRYLTTLKNLRETAEEVKARYTRVVWCAVGPEEQKKCQQWSQQSGQNVTCATASTTDDCIVLVLKGEADALNLDGGYIYTAGKCGLVPVLAENRKSSKHSSLDCVLRPTEGYLAVAVVKKANEGLTWNSLKDKKSCHTAVDRTAGWNIPMGLIVNQTGSCAFDEFFSQSCAPGADPKSRLCALCAGDDQGLDKCVPNSKEKYYGYTGAFRCLAEDVGDVAFVKNDTVWENTNGESTADWAKNLNREDFRLLCLDGTRKPVTEAQSCHLAVAPNHAVVSRSDRAAHVKQVLLHQQALFGKNGKNCPDKFCLFKSETKNLLFNDNTECLAKLGGRPTYEEYLGTEYVTAIANLKKCSTSPLLEACAFLTR", "values": [{"measurement": "inhibitory effect on PEP activity", "value": "did not show any inhibitory effect"}]}
